Data reported in patent US20210079074A1 (Alector, published 2021).
Read-outs that look alike come from different tables or passages of the source.

Legend:
human MS4A4A [1] = biological target: T1, human MS4A4A (human, UniProt Q96JQ5 1-239); test: FACS, U937-huMS4A4A, 5 ug/ml
Description: (§1) Anti-MS4A4A antibodies tested were either mouse IgGs purified from hybridoma supernatant or human IgG1 Fc chimeras produced recombinantly in Expi293 cells. Affinity binding to cells was determined as follows. Briefly, cells were harvested, washed, and labeled with Aqua Live/Dead for viability discrimination. After a wash with PBS, 2×10\hat{ }4 cells were aliquoted per well in 96-well U-bottom plates and incubated with 50 μL of purified anti-MS4A4A antibody at various concentrations (3× dilutions starting at 10 μg/mL) in FACS buffer (PBS+2% FBS+1 mM EDTA). After this primary incubation, the supernatant was removed via centrifugation, washed 2× with 150 μL of ice-cold FACS buffer, and incubated with the appropriate secondary antibody on ice for 15 minutes. Following the secondary antibody incubation, the cells were again washed 2× with ice-cold FACS buffer and resuspended in a final volume of 200 μL of FACS buffer. Flow cytometry analysis was performed on a FACSCanto system (BD Biosciences). Binding data was expressed as Median Fluorescent Intensity (MFI).
(§2) These experiments were performed using anti-MS4A4A antibodies at a concentration of 5 μg/ml and were assayed for cell binding by flow cytometry.

[2] = biological target: T2, recombinant MS4A4A soluble polypeptide JS1; test: ELISA, 1 ug/ml antibody
T2 construct: also called JS1.His; loop grafted antigen
Description: (§3) Anti-MS4A4A antibodies of the present disclosure were tested for their ability to bind to the different recombinant MS4A4A soluble polypeptides, as described in Example 2, as follows. Nucleic acid encoding the VH and VL domains of humanized anti-MS4A4A antibodies of the present disclosure were cloned into pcDNA3.4 vector which contains either the human IgG1 heavy chain constant domain or human kappa constant domain. The humanized anti-MS4A4A antibodies were expressed in Expi293 cells and were purified by Mab select antibody purification resin (GE Healthcare Life Science, cat#17519902) following the manufacture's protocol. ELISA was performed to measure binding of anti-MS4A4A antibodies of the present disclosure the recombinant MS4A4A soluble polypeptides. 1 μg/ml biotinylated antigens were preincubated on the streptavidin-coated ELISA plates (Thermo Scientific, cat#PI15120) for 1 hour. Plates were washed 3 times, followed by the addition of antibodies (1 μg/ml, 0.33 μg/ml, and 0.11 μg/ml antibodies. Plates were incubated at room temperature with shaking for 1 hr, washed 3 times, then 1/2500 dilution of HRP conjugates goat anti human kappa antibodies added (SigmaAldrich cat#. A7164-1ML).

[3] = biological target: T3, recombinant MS4A4A soluble polypeptide JS5; test: ELISA, 0.33 ug/ml antibody
T3 construct: also called JS5.His
Description: as §3

[4] = biological target: T3, recombinant MS4A4A soluble polypeptide …; test: ELISA, 1 ug/ml antibody
Description: as §3

human MS4A4A [5] = biological target: T1, human MS4A4A; test: FACS, U937-huMS4A4A, 5 ug/ml; remark: listed apart in the source
Description: as §1, §2

[6] = biological target: T3, recombinant MS4A4A soluble polypeptide …; test: ELISA, 0.11 ug/ml antibody
Description: as §3

B1: anti-MS4A4A antibody 4A-348 (antibody, human IgG1, V domains shown)
VH: QIQLVQSGAEVKKPGASVKVSCKASGYIFTSYGLSWVRQAPGQGLEWMGWINTYSGVPTYAQKFQGRVTMTRDTSTSTVYMELSSLRSEDTAVYYCARSLVDYWGQGTLVTVSS
VL: DIVMTQTPLSLSVTPGQPASISCKSSQSLLYSDGKTYLSWYLQKPGQPPQLLIYLVSKLDSGVPDRFSGSGSGTDFTLKISRVEAEDVGVYYCWQGIDFHQTFGGGTKVEIK
notes: humanized 4A-21; human IgG1/kappa
- MFI (human MS4A4A [1]): 47.8
- OD450 [2]: 0.131

B2: anti-MS4A4A antibody 4A-349 (antibody, human IgG1, V domains shown)
VH: QIQLVQSGAEVKKPGASVKVSCKASGYIFTSYGLSWVRQAPGQGLEWMGWINTYSGVPTYAQKFQGRVTMTLDTSTSTTYMELSSLRSEDTAVYYCARSLVDYWGQGTLVTVSS
VL: DIVMTQTPLSLSVTPGQPASISCKSSQSLLYSDGKTYLSWYLQKPGQPPQLLIYLVSKLDSGVPDRFSGSGSGTDFTLKISRVEAEDVGVYYCWQGIDFHQTFGGGTKVEIK
notes: as for B1
- MFI (human MS4A4A [1]): 142
- OD450 [2]: 0.331

B3: anti-MS4A4A antibody 4A-308 (antibody, human IgG1, V domains shown)
VH: QVQLVQSGAEVKKPGASVKVSCKASGYTFTNYWMQWVRQAPGQGLEWMGATHPGHGDTRYAQKFQGRVTMTADKSTSTAYMELSSLRSEDTAVYYCAREEVYYGFRSYWYFDVWGRGTLVTVSS
VL: DIVMTQSPDSLAVSLGERATINCRASESVDNYGVSFMNWYQQKPGQPPKLLIYGASNQGSGVPDRFSGSGSGTDFTLTISSLQAEDVAVYYCQQSKEVPPTFGGGTKVEIK
notes: human IgG1/kappa
- MFI (human MS4A4A [1]): 97.2
- OD450 [2]: 0.12

B4: anti-MS4A4A antibody 4A-304 (antibody, human IgG1, V domains shown)
VH: QVQLVQSGAEVKKPGASVKVSCKASGYTFTNYWMQWVRQAPGQGLEWMGATHPGHGDTRYAQKFQGRVTMTRDTSTSTVYMELSSLRSEDTAVYYCAREEVYYGFRSYWYFDVWGRGTLVTVSS
VL: EIVLTQSPGTLSLSPGERATLSCRASESVDNYGVSFMNWYQQKPGQAPRLLIYGASNQGSGIPDRFSGSGSGTDFTLTISRLEPEDFAVYYCQQSKEVPPTFGGGTKVEIK
notes: human IgG1/kappa
- MFI (human MS4A4A [1]): 112
- OD450 [2]: 0.11

B5: anti-MS4A4A antibody 4A-309 (antibody, human IgG1, V domains shown)
VH: QVQLVQSGAEVKKPGASVKVSCKASGYTFTNYWMQWVRQAPGQGLEWMGATHPGHGDTRYAQKFQGRVTLTADKSISTAYMELSRLRSDDTVVYYCAREEVYYGFRSYWYFDVWGRGTLVTVSS
VL: EIVLTQSPATLSLSPGERATLSCRASESVDNYGVSFMNWYQQKPGQAPRLLIYGASNQGSGIPARFSGSGSGTDFTLTISSLEPEDFAVYYCQQSKEVPPTFGGGTKVEIK
notes: human IgG1/kappa
- MFI (human MS4A4A [1]): 131
- OD450 [2]: 0.115

B6: anti-MS4A4A antibody 4A-301 (antibody, human IgG1, V domains shown)
VH: QVQLVQSGAEVKKPGASVKVSCKASGYTFTNYWMQWVRQAPGQGLEWMGATHPGHGDTRYAQKFQGRVTMTRDTSTSTVYMELSSLRSEDTAVYYCAREEVYYGFRSYWYFDVWGRGTLVTVSS
VL: DIVMTQSPDSLAVSLGERATINCRASESVDNYGVSFMNWYQQKPGQPPKLLIYGASNQGSGVPDRFSGSGSGTDFTLTISSLQAEDVAVYYCQQSKEVPPTFGGGTKVEIK
notes: human IgG1/kappa
- MFI (human MS4A4A [1]): 89.7
- OD450 [2]: 0.116

B7: anti-MS4A4A antibody 4A-352 (antibody, V domains shown)
VH: QVQLVQSGSELKKPGASVKVSCKASGYIFTSYGLSWVRQAPGQGLEWMGWINTYSGVPTYAQGFTGRFVFSLDTSVSTAYLQISSLKAEDTAVYYCARTLADYWGQGTLVTVSS
VL: DVVMTQSPLSLPVTLGQPASISCKSSRSLLYSGGKTYLSWFQQRPGQSPRRLIYLVSKLDSGVPDRFSGSGSGTDFTLKISRVEAEDVGVYYCWQGIDFHQTFGGGTKVEIK
notes: full human IgG
- ELISA OD [3]: 0.885
- ELISA OD [4]: 0.985
- MFI (human MS4A4A [5]): 11000
- ELISA OD [6]: 0.655

B8: anti-MS4A4A antibody 4A-355 (antibody, V domains shown)
VH: QVQLVQSGSELKKPGASVKVSCKASGYIFTSYGLSWVRQAPGQGLEWMGWINTYSGVPTYAQGFTGRFVFSLDTSVSTAYLQISSLKAEDTAVYYCARTLADYWGQGTLVTVSS
VL: DVVMTQSPLSLPVTLGQPASISCKSSRSLLYSSGKTYLSWFQQRPGQSPRRLIYLVSKLDSGVPDRFSGSGSGTDFTLKISRVEAEDVGVYYCWQGIDFHQTFGGGTKVEIK
notes: full human IgG
- ELISA OD [3]: 0.878
- ELISA OD [4]: 0.961
- MFI (human MS4A4A [5]): 13400
- ELISA OD [6]: 0.721

B9: anti-MS4A4A antibody 4A-378 (antibody, V domains shown)
VH: QVQLVQSGSELKKPGASVKVSCKASGYIFTSYGLSWVRQAPGQGLEWMGWINTYSGVPTYAQGFTGRFVFSLDTSVSTAYLQISSLKAEDTAVYYCARSMADYWGQGTLVTVSS
VL: DVVMTQSPLSLPVTLGQPASISCKSSRSLLYSEGKTYLSWFQQRPGQSPRRLIYLVSKLDSGVPDRFSGSGSGTDFTLKISRVEAEDVGVYYCWQGIDFHQTFGGGTKVEIK
- ELISA OD [3]: 0.848
- ELISA OD [4]: 0.944
- MFI (human MS4A4A [5]): 9910
- ELISA OD [6]: 0.636

B10: anti-MS4A4A antibody 4A-354 (antibody, V domains shown)
VH: QVQLVQSGSELKKPGASVKVSCKASGYIFTSYGLSWVRQAPGQGLEWMGWINTYSGVPTYAQGFTGRFVFSLDTSVSTAYLQISSLKAEDTAVYYCARTLADYWGQGTLVTVSS
VL: DVVMTQSPLSLPVTLGQPASISCKSSRSLLYSAGKTYLSWFQQRPGQSPRRLIYLVSKLDSGVPDRFSGSGSGTDFTLKISRVEAEDVGVYYCWQGIDFHQTFGGGTKVEIK
notes: full human IgG
- ELISA OD [3]: 0.874
- ELISA OD [4]: 0.98
- MFI (human MS4A4A [5]): 13700
- ELISA OD [6]: 0.701

B11: anti-MS4A4A antibody 4A-377 (antibody, V domains shown)
VH: QVQLVQSGSELKKPGASVKVSCKASGYIFTSYGLSWVRQAPGQGLEWMGWINTYSGVPTYAQGFTGRFVFSLDTSVSTAYLQISSLKAEDTAVYYCARSMADYWGQGTLVTVSS
VL: DVVMTQSPLSLPVTLGQPASISCKSSRSLLYSGGKTYLSWFQQRPGQSPRRLIYLVSKLDSGVPDRFSGSGSGTDFTLKISRVEAEDVGVYYCWQGIDFHQTFGGGTKVEIK
notes: full human IgG
- ELISA OD [3]: 0.873
- ELISA OD [4]: 0.928
- MFI (human MS4A4A [5]): 12200
- ELISA OD [6]: 0.577

B12: anti-MS4A4A antibody 4A-379 (antibody, V domains shown)
VH: QVQLVQSGSELKKPGASVKVSCKASGYIFTSYGLSWVRQAPGQGLEWMGWINTYSGVPTYAQGFTGRFVFSLDTSVSTAYLQISSLKAEDTAVYYCARSMADYWGQGTLVTVSS
VL: DVVMTQSPLSLPVTLGQPASISCKSSRSLLYSAGKTYLSWFQQRPGQSPRRLIYLVSKLDSGVPDRFSGSGSGTDFTLKISRVEAEDVGVYYCWQGIDFHQTFGGGTKVEIK
- ELISA OD [3]: 0.812
- ELISA OD [4]: 0.893
- MFI (human MS4A4A [5]): 10600
- ELISA OD [6]: 0.543

B13: anti-MS4A4A antibody 4A-353 (antibody, V domains shown)
VH: QVQLVQSGSELKKPGASVKVSCKASGYIFTSYGLSWVRQAPGQGLEWMGWINTYSGVPTYAQGFTGRFVFSLDTSVSTAYLQISSLKAEDTAVYYCARTLADYWGQGTLVTVSS
VL: DVVMTQSPLSLPVTLGQPASISCKSSRSLLYSEGKTYLSWFQQRPGQSPRRLIYLVSKLDSGVPDRFSGSGSGTDFTLKISRVEAEDVGVYYCWQGIDFHQTFGGGTKVEIK
notes: full human IgG
- ELISA OD [3]: 0.85
- ELISA OD [4]: 0.996
- MFI (human MS4A4A [5]): 10400
- ELISA OD [6]: 0.63

B14: anti-MS4A4A antibody 4A-356 (antibody, V domains shown)
VH: QVQLVQSGSELKKPGASVKVSCKASGYIFTSYGLSWVRQAPGQGLEWMGWINTYSGVPTYAQGFTGRFVFSLDTSVSTAYLQISSLKAEDTAVYYCARTLADYWGQGTLVTVSS
VL: DVVMTQSPLSLPVTLGQPASISCKSSRSLLYSQGKTYLSWFQQRPGQSPRRLIYLVSKLDSGVPDRFSGSGSGTDFTLKISRVEAEDVGVYYCWQGIDFHQTFGGGTKVEIK
notes: full human IgG
- ELISA OD [3]: 0.85
- ELISA OD [4]: 0.927
- MFI (human MS4A4A [5]): 12000
- ELISA OD [6]: 0.746
